Experimental data from patent publication US20180251562A1 (XOMA US, published 2018).
Positions count from the first letter of the chain named.

B1: RHF.15.05896.006 (Fab, V domains shown)
VH: EVQLVETGGGVVQPGRSLRLSCAASGFKFSSYAMHWVRQAPGKGLEWVAVISYSGDNKYYADSVKGRFTISRDNSKNTLYLQMNSLRAEDTAVYYCARHEWGFGFDRWGQGTTVTVSS
VL: DVVMTQSPLSLPVTLGQPASISCRSSQSLVYGDGNTYLNWFQQRPGQSPRRLIYKVSNRDSGVPDRFSGSGSGTEFTLKISRVEAEDVGVYFCMQGTYWPGTFGGGTKLEIKR
notes: Untagged Fab
B2: RHF.15.05896.032 (Fab, V domains shown)
VH: B1 VH with D56E, R107E
VL: B1 VL
notes: Untagged Fab
B3: RHF.15.05896.020 (Fab, V domains shown)
VH: B1 VH with Y53W, D56S, R107E
VL: B1 VL
notes: Untagged Fab
B4: RHF.15.05896.015 (Fab, V domains shown)
VH: B1 VH with D56R, F105Q, R107Y
VL: B1 VL
notes: Untagged Fab
B5: RHF.15.05896.068 (Fab, V domains shown)
VH: B1 VH with D56G, F105Y, R107Y
VL: B1 VL
notes: Untagged Fab
B6: RHF.15.05896.036 (Fab, V domains shown)
VH: B1 VH with D56G, R107L
VL: B1 VL
notes: Untagged Fab
B7: RHF.15.05896.044 (Fab, V domains shown)
VH: B1 VH with Y53N, D56S, R107K
VL: B1 VL
notes: Untagged Fab
B8: RHF.15.05896.056 (Fab, V domains shown)
VH: B1 VH with S54G, D56S, R107E
VL: B1 VL
notes: Untagged Fab
B9: XPA.15.247 Fab (Fab, V domains shown)
VH: B1 VH with K28T, S54D, D56S, F105M, R107V
VL: DVVMTQSPLSLSVTLGQPASISCRSSLSLVYGDENTYLNWFQQRPGQSPRRLLYKVSDRDSGVPDRFSGSGSGTDFTLKISRVEADDVGVYYCMQGTHWPYTFGQGTKLEIKR
notes: Monomeric Fab; also called Fab247; XPA.15.247 parent Fab
B10: XPA.15.247.2.011 Fab (Fab, V domains shown)
VH: B1 VH with K28T, D56S, R107Y
VL: B9 VL with S12P, L27H, E34G, Q42H, L53I, D58N, S68A, V88F, Y91F
notes: Fab; also called XPA.15.247.011
B11: XPA.15.247.2.014 Fab (Fab, V domains shown)
VH: B1 VH with K28T, D56S, R107Y
VL: B1 VL with N58K, E75D, F92Y, G101M
notes: Fab; also called XPA.15.247.014
B12: XPA.15.247.2.011 IgG (antibody, V domains shown)
VH: B1 VH with K28T, D56S, R107Y
VL: B9 VL with S12P, L27H, E34G, Q42H, L53I, D58N, S68A, V88F, Y91F
notes: Tested as IgG; also called XPA.15.247.011
B13: XPA.15.247.2.014 IgG (antibody, V domains shown)
VH: B1 VH with K28T, D56S, R107Y
VL: B1 VL with N58K, E75D, F92Y, G101M
notes: Tested as IgG; also called XPA.15.247.014

Biological target: T1, Recombinant human insulin receptor (B form) ECD (R&D Systems) (human, UniProt P06213 28-956, limits assumed)
T1 construct: extracellular domain; also called INSR-ECD; h-INSR
Assay: SPR (Biacore 2000), INSR-ECD immobilised; relative to 247.2.018 Fab

Fold KD Improvement [fold] | Binder
5.2 | B1
8.6 | B2
6.4 | B3
3.3 | B4
8.3 | B5
5.4 | B6
7.4 | B7
6.9 | B8

Biological target: T2, solubilized human INSR (B isoform) from CHO-hINSR-B cells, without insulin (human, UniProt P06213 28-1382)
T2 construct: mature; Detergent-solubilized full-length receptor in cell lysate, captured on the SPR chip by its carboxy-terminal part; also called solubilized INSR
Assay: SPR (ProteOn XPR36), solubilized INSR-B captured by CT-3 mAb, Fab injected, -insulin

Kd [nM] | koff [s⁻¹] | kon [M⁻¹ s⁻¹] | Binder
56 | 0.00211 | 37400 | B9
10 | 0.000705 | 70400 | B10
3.7 | 0.000705 | 137000 | B11

Biological target: T3, cynomolgus insulin receptor (INSR) on CHOK1 cells (cyno, UniProt A0A7N9D6H3 48-1390)
T3 construct: whole, on cells; CHOK1 cells over-expressing cyno INSR; also called cynomologous INSR ortholog; monkey INSR
Assay: binding to CHO cells expressing cyno INSR; 2nd column headed CHO Cyno INSR (same numbers as the 1st); quantity and unit not printed [cont'd]

CHO Cyno INSR | Binder
0.911 | B3
0.854 | B5

Biological target: T1, Recombinant human insulin receptor (B …)
Assay: SPR (Biacore 2000), INSR-ECD immobilised, purified Fab injected, 1:1 fit

Kd [nM] | Binder
1.9 | B1
1.1 | B2
1.5 | B3
3 | B4
1.2 | B5
1.8 | B6
1.3 | B7
1.4 | B8

Biological target: T3, cynomolgus insulin receptor (INSR) on …
Assay: flow cytometry on CHOK1 cells expressing the INSR ortholog; Fab, anti-human kappa FITC detection

EC50 [nM] | Binder
93 | B9
17.2 | B10
10.2 | B11

Biological target: T4, rat insulin receptor (INSR) on CHOK1 cells (rat, UniProt P15127 27-1383)
T4 construct: whole, on cells; CHOK1 cells over-expressing rat INSR; also called rat INSR ortholog
Assay: as above

EC50 [nM] | Binder
11.8 | B9
1.9 | B10
1.7 | B11

Biological target: T5, minipig insulin receptor (INSR) on CHOK1 cells (minipig, UniProt F1SCL0 28-758; F1SCL0 763-1382)
T5 construct: Cells expressing minipig INSR; also called minipig INSR
Assay: as above

EC50 [nM] | Binder
39.8 | B9
5.8 | B10
2.9 | B11

Biological target: T6, human insulin receptor (INSR) on CHOK1 cells (human, UniProt P06213 28-1382)
T6 construct: whole, on cells; CHOK1 cells over-expressing human INSR; also called human INSR; hINSR
Assay: as above

EC50 [nM] | Binder
34.8 | B9
2.7 | B10
1.8 | B11

Biological target: T6, human insulin receptor (INSR) on CHOK1 …
Assay: binding to CHO cells expressing human INSR; 2nd column headed CHO Human INSR; quantity and unit not printed [cont'd]

CHO Human INSR | Binder
0.838 | B3
0.762 | B5

Biological target: T6, human insulin receptor (INSR) on CHOK1 …
Assay: binding to CHO cells expressing human INSR; 1st column headed CHO Human INSR; quantity and unit not printed [cont'd]

CHO Human INSR | Binder
2.95 | B1
3.1 | B2
1.96 | B3
4.35 | B4
1.25 | B5
3.04 | B6
2.52 | B7
2.26 | B8

Biological target: T3, cynomolgus insulin receptor (INSR) on …
Assay: flow cytometry on CHOK1 cells expressing the INSR ortholog; IgG, anti-human IgG APC detection

EC50 [nM] | Binder
3.3 | B12
1.1 | B13

Biological target: T4, rat insulin receptor (INSR) on CHOK1 …
Assay: as above

EC50 [nM] | Binder
1.3 | B12
0.7 | B13

Biological target: T5, minipig insulin receptor (INSR) on …
Assay: as above

EC50 [nM] | Binder
1.5 | B12
0.9 | B13

Biological target: T6, human insulin receptor (INSR) on CHOK1 …
Assay: as above

EC50 [nM] | Binder
1 | B12
0.7 | B13

Biological target: T4, rat insulin receptor (INSR) on CHOK1 …
Assay: binding to CHO cells expressing rat INSR; 2nd column headed CHO Rat INSR (the 1st column's numbers with more digits); quantity and unit not printed [cont'd]

CHO Rat INSR | Binder
0.66 | B3
0.533 | B5

Biological target: T1, Recombinant human insulin receptor (B …)
Assay: SPR (Biacore 2000), INSR-ECD immobilised, purified Fab injected, 1:1 fit [cont'd]

koff [s⁻¹] | kon [M⁻¹ s⁻¹] | Binder
0.00024 | 130000 | B1
0.0001 | 91000 | B2
0.00017 | 110000 | B3
0.00025 | 84000 | B4
0.00038 | 320000 | B5
0.00022 | 120000 | B6
0.00017 | 130000 | B7
0.00017 | 120000 | B8

Biological target: T3, cynomolgus insulin receptor (INSR) on …
Assay: cell-based or functional assay

EC50 (nM), pAKT signaling assay [nM] | Binder
82.4 | B9
1.3 | B12
6.2 | B10
~15.1 | B11
1.7 | B13

Biological target: T4, rat insulin receptor (INSR) on CHOK1 …
Assay: cell-based or functional assay

EC50 (nM), pAKT signaling assay [nM] | Binder
46.6 | B9
3.1 | B12
7.8 | B10
~15.6 | B11
4.2 | B13

Biological target: T5, minipig insulin receptor (INSR) on …
Assay: cell-based or functional assay

EC50 (nM), pAKT signaling assay [nM] | Binder
20.7 | B9
1.7 | B12
4.4 | B10
8.4 | B11
2.3 | B13

Biological target: T6, human insulin receptor (INSR) on CHOK1 …
Assay: cell-based or functional assay

EC50 (nM), pAKT signaling assay [nM] | Binder
44 | B9
1.5 | B12
5 | B10
9.6 | B11
2.1 | B13

Biological target: T3, cynomolgus insulin receptor (INSR) on …
Assay: binding to CHO cells expressing cyno INSR; 1st column headed CHO Cyno INSR; quantity and unit not printed [cont'd]

CHO Cyno INSR | Binder
0.911 | B3
0.854 | B5

Biological target: T4, rat insulin receptor (INSR) on CHOK1 …
Assay: binding to CHO cells expressing rat INSR; 1st column headed CHO Rat INSR; quantity and unit not printed [cont'd]

CHO Rat INSR | Binder
0.661 | B3
0.533 | B5
